Kd data for 2 molecules are collected here from PMC2735045.

This data set concerns the target CsrA-His6 (Escherichia coli, UniProt P69913 1-61). Description: EMSA.

Chain of CsrA-His6 (P69913 whole entry): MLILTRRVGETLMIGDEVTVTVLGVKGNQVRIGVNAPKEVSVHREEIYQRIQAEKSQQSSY

B1: ydeH transcript (-29 to +25) (ssRNA)
RNA: GGGCACAAGGAACUGUGAAAAAGGAGUGGCAAUGAUCAAGAAGACAACGGAAAUUG
Consider B1, for which the Kd is 2.3 ± 0.1 nM.

B2: ycdT transcript (-36 to +20) (ssRNA)
RNA: GGGAAAGGGAUCUACAACCUACAGAUUGGUGUAGCUUUAUGGAAAAAGACUAUUUGAG
B2 had an equilibrium dissociation constant (Kd) of 2.6 ± 0.3 nM.

Broadly, the Kd is a measure of binding affinity in units of concentration. Lower therefore signals tighter binding.
